# Measurements taken from publication PMC10156733, “N-Formimidoylation/-iminoacetylation modification in aminoglycosides requires FAD-dependent and ligand-protein NOS bridge dual chemistry” (Nature Communications, 2023).
# T1: Orf1 (Streptomyces luteocolor, UniProt A0A125SZC1)
# T1 construct: full length, 491 residues; pET28a, His-tagged (Ni-NTA), E. coli BL21(DE3); tetramer with FAD in each chain; peptide AFAC281GLHLVPR
# T1 sequence (A0A125SZC1 1-491): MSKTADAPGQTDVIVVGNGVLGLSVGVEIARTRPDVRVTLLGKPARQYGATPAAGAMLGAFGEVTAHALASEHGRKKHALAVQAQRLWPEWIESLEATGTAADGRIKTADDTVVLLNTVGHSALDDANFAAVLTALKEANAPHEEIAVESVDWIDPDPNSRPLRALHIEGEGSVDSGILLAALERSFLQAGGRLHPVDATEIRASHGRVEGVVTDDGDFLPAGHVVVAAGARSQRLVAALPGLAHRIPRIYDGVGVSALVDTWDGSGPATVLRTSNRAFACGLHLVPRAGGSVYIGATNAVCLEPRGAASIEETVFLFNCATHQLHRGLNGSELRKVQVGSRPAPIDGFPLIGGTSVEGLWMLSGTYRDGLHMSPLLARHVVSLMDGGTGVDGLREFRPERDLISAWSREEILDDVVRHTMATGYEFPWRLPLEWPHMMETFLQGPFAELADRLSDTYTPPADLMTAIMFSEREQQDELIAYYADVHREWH
# B1: Orf1 (Streptomyces luteocolor) (protein)
# chain: T1 sequence (A0A125SZC1 1-491)
# notes: full length, 491 residues; pET28a, His-tagged (Ni-NTA), E. coli BL21(DE3); tetramer with FAD in each chain; peptide AFAC281GLHLVPR
# Key:
# Orf1 [1] = molecular target: T1, Orf1; test: LC-MS of denatured protein; X-ray crystal structure; format: binding; conditions: prosthetic group, copurified
# [2] = test system: NCCCC(N)CC(=O)NC1C(N=C2NC3C(=O)NCC(O)C3N2)OC(CO)C(OC(N)=O)C1O; test: LC-MS of ST-F consumption; format: biochemical, Streptomyces luteocolor; conditions: glycine + ST-F, ST-F varied 25-500 μM, 100 mM sodium phosphate pH 8, 37 °C, crystal complex with glycine
# Orf1 [3] = molecular target: T1, Orf1; test: isothermal titration calorimetry; format: binding
# Excerpt: isothermal titration calorimetry on Orf1 | binding affinities of ST-F versus Orf1 wild-type or mutants were estimated
# Orf1 [4] = molecular target: T2, Orf1 (Streptomyces luteocolor, UniProt A0A125SZC1, E312A); test: isothermal titration calorimetry; format: binding
# T2 construct: full length, 491 residues; pET28a, His-tagged (Ni-NTA), E. coli BL21(DE3); tetramer with FAD in each chain; peptide AFAC281GLHLVPR
# Orf1 [5] = molecular target: T3, Orf1 (Streptomyces luteocolor, UniProt A0A125SZC1, R342A); test: isothermal titration calorimetry; format: binding
# T3 construct: full length, 491 residues; pET28a, His-tagged (Ni-NTA), E. coli BL21(DE3); tetramer with FAD in each chain; peptide AFAC281GLHLVPR
# Excerpt: isothermal titration calorimetry on Orf1 | held the same ST-F binding affinity as the wild type
# [6] = molecular target: T4, AAC(6’)-Ie-APH(6”)-Ia; aac(6’)-Ie-aph(2”)-Ia (Staphylococcus aureus, UniProt P0A0C1); test: in vitro N-acetylation assay; format: biochemical; conditions: acetylation only to some extent
# T4 construct: gene aacA-aphD; synthetic gene, recombinant
# purified protein = substrate: NCC(=O)O; test: purified protein; format: biochemical, Streptomyces luteocolor; conditions: single substrate glycine (oxidation phase), 100 mM sodium phosphate pH 8, crystal complex also shows covalent glycine imine-N-O-S adduct at C281
# [7] = substrate: NCCCC(N)CC(=O)NC1C(N=C2NC3C(=O)NCC(O)C3N2)OC(CO)C(OC(N)=O)C1O; test: LC-MS of ST-F consumption; format: biochemical, Streptomyces luteocolor; conditions: glycine + ST-F, ST-F varied 25-500 μM, 100 mM sodium phosphate pH 8, 37 °C
molecule,measurement,setting,value
Cc1cc2nc3c(=O)[nH]c(=O)nc-3n(C[C@H](O)[C@H](O)[C@H](O)COP(=O)(O)OP(=O)(O)OC[C@H]3O[C@@H](n4cnc5c(N)ncnc54)[C@H](O)[C@@H]3O)c2cc1C [FAD],LC-MS of denatured protein; X-ray crystal structure,Orf1 [1],This yellow cofactor was determined to be flavin adenine dinucleotide (FAD)
Orf1 (Streptomyces luteocolor; F316A),Km,[2],190 µM
same,kcat,[2],0.119 s⁻¹
"NCCCC(N)CC(=O)NC1C(N=C2NC3C(=O)NCC(O)C3N2)OC(CO)C(OC(N)=O)C1O (centres unmarked) [compound 7, ST-F]",Kd,Orf1 [3],11.3 µM
same,Kd,Orf1 [4],55.2 µM
same,Kd,Orf1 [5],14.3 µM
"NCC(=O)N[C@@H]1[C@H](O)[C@@H](OC(N)=O)[C@@H](CO)O[C@H]1N=C1N[C@@H]2[C@H](O)CNC(=O)[C@H]2N1 [compound 4, glycylthricin]",in vitro N-acetylation assay,[6],inactivated glycylthricin by N-acetylation to some extent in in vitro assay
B1,Km,purified protein,202 µM
same,kcat,purified protein,0.0123 s⁻¹
same,Km,[7],196 µM
same,kcat,[7],0.0513 s⁻¹
